{"source": "paper PMC10815899", "about": "(2024)", "key": {"[1]": {"target": "T1, epithelial adhesin 6 of N. glabratus (N. glabratus (endogenous), UniProt Q6FX55 1-715)", "T1 chain": "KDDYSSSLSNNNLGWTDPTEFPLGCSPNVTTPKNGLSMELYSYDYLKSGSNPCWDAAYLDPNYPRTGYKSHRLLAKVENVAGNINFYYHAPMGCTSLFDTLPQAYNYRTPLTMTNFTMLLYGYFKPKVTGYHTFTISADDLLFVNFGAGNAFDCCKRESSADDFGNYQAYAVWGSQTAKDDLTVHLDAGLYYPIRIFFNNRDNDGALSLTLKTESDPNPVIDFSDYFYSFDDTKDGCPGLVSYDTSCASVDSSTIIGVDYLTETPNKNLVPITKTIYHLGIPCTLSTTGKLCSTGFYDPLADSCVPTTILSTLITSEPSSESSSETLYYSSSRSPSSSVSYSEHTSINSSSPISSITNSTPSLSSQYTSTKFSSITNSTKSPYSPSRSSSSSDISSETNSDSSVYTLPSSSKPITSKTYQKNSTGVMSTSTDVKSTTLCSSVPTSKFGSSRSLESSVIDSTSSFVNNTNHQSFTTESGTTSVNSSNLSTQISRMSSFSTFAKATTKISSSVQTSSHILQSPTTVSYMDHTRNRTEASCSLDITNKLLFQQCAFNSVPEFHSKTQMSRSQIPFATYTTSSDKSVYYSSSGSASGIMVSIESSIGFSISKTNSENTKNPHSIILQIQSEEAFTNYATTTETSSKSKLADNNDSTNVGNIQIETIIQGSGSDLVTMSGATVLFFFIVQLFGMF", "assay": "BLI"}, "[2]": {"target": "T1, epithelial adhesin 6 of N. glabratus", "assay": "SPR"}, "[3]": {"target": "T1, epithelial adhesin 6 of N. glabratus", "assay": "BLI"}}, "data": [{"binder": "cytoplasmic Nakaseomyces glabratus glyceraldehyde 3-phosphate dehydrogenase (enzyme, biotin (NHS-biotin) in the microplate ligand-binding assays) MVRIAINGFGRIGRLVLRVALSRSNIEVVAVNDPFITTDYAAYMFKYDSTHGRYAGEVTHDDKHIIIDGKKIAVHQERDPANLPWGSENIDIAIDSTGVFKELDTAQKHIDAGAKKVVITAPSSTAPMFVVGVNEDKYTSDLKIVSNASCTTNCLAPLAKVIDEAFGIEEGLMTTVHSLTATQKTVDGPSHKDWRGGRTASGNIIPSSTGAAKAVGKVLPQLQGKLTGMAFRVPTVDVSVVDLTVKLQKETTYDEIKKVIKQASEGKLKGVLGYTEDAVVSSDFLGDSRSSIFDASAGIQLSPKFVKLVSWYDNEYGYSTRVVDLVEHVAKN", "values": [{"measurement": "koff", "setting": "[1]", "result": 0.00195, "unit": "s⁻¹"}, {"measurement": "koff", "setting": "[2]", "result": 0.000209, "unit": "s⁻¹"}, {"measurement": "Kd", "setting": "[3]", "result": 6.89, "unit": "nM"}]}]}
